Consider twelve molecules from patent US20250326842A1.

Test [1] addresses Cyno PVRIG recombinant protein (cynomolgus monkey). The experiment in a line: ELISA, chimeric antibody on recombinant cyno PVRIG. (In general: An ELISA detects its analyte on a solid surface through an enzyme-linked reagent.)
Test [2] shares this target. In words: SPR, antibody captured via anti-human Fc, cyno PVRIG analyte. In general terms: SPR reads the build-up and loss of mass on a sensor chip optically.
Test [3] shares this target. The description is as above. The source holds these as a separate data set.

Read-outs that look alike come from different tables or passages of the source.

Chain of Cyno PVRIG recombinant protein (cynomolgus monkey) (Q6DKI7 other isoform, or with tags, fused parts or gaps limits assumed): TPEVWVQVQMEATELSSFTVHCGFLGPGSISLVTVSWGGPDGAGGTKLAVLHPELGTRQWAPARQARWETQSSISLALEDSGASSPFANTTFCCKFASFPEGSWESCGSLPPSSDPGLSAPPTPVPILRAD

B1: BGA50 (antibody, V domains shown)
VH: EVQLQQSGPEPVKPGASVKISCKASGYSFTGYFLNWVKQSHGKSLEWIGRISPYNGDTFYNQKFKGKATLTVDKSSSTAHMELLSLTSEDSAVYYCGRSGSFTLFYAMDYWGQGTSVTVSS
VL: DIVMSQSPSSLAVSVGENITMTCKSSQSLFHSGNQKNYLAWYQQKPGQSPKLLIYWASTRESGVPDRFTGSGSETDFTLTISSVKAEDLAVYFCQQYYSYPITFGAGTKLELK
As to B1, the EC50 in test [1] came to 27.3 pM. For the same molecule, in test [2], the Kd stood at 730 pM, the koff came to 0.00588 s⁻¹ and the kon was determined as 8.05e+06 M⁻¹ s⁻¹. In test [3], the Kd amounted to 347 pM, the koff was 0.0032 s⁻¹ and the kon came to 9.21e+06 M⁻¹ s⁻¹.

B2: BGA12 (antibody, V domains shown)
VH: QVQLQQSGPEVVRPGVSVKISCKGSGYTFTDYAMHWVKQSHGKSLEWIGVVLTHNDNTNYNQKFKAKATMTVDRSSSTAYMELARLTSEDSAIYYCAREVYYDFDDGNYFPMDYWGQGTSVTVSS
VL: DIVMSQSPSSLAVSVGEKVTMSCKSSQSLLYSDNQKNYLAWYQQKPGQSPKLLIYWASTRESGVPVRFTGSGSGTDFTLTISSVKAEDLAVYYCQQYYSYHTFGGGTKLEIK
Take B2: the EC50 in test [1] came out at 39 pM. Moreover, in test [2], the Kd was 6310 pM, the koff is 0.000354 s⁻¹ and the kon is 56100 M⁻¹ s⁻¹.

B3: BGA861 (antibody, V domains shown)
VH: EVQLVESGGGLVKPGGSLRLSCAASGFTFSSYGISWVRQAPGKGLEWVSEISSGGTYTYYPDTVTGRFTISRDNAKNTLYLQMSSLRAEDTAVYYCARGDPFGYWGQGTLVTVSS
VL: DIQMTQSPSSLSASVGDRVTITCKASQDVMTAVAWYQQKPGKAPKLLIYSTSYRFTGVPSRFSGSGSGTDFTLTISSLQPEDFATYYCQQHYSTPRTFGGGTKVEIK
For B3, in test [3], the Kd was determined as 1010 pM, the koff stood at 0.00221 s⁻¹ and the kon stood at 2.18e+06 M⁻¹ s⁻¹.

B4: BGA862 (antibody, V domains shown)
VH: EVQLVESGGGLVKPGGSLRLSCAASGFTFSSYGLSWVRQAPGKGLEWVSEISSGGTYTYYPDTVTGRFTISRDNAKNTLYLQMSSLRAEDTAVYYCARGDPFGYWGQGTLVTVSS
VL: DIQMTQSPSSLSASVGDRVTITCKASQDVMTAVAWYQQKPGKAPKLLIYSTSYRFTGVPSRFSGSGSGTDFTLTISSLQPEDFATYYCQQHYSTPRTFGGGTKVEIK
With B4, in test [3], the dissociation constant (Kd) came to 2160 pM, the koff was determined as 0.00483 s⁻¹ and the kon came to 2.23e+06 M⁻¹ s⁻¹.

B5: BGA381 (antibody, V domains shown)
VH: EVQLVQSGAEVKKPGASVKVSCKASGYTFTDYWIYWVRQAPGQGLEWMGTIDTSDHKTSYNQKFRGRVTMTRDTSTSTVYMELSSLRSEDTAVYYCARDFIITVNYPVVDYWGQGTLVTVSS
VL: QIVLTQSPATLSLSPGERATLSCSAGSSVNYMHWFQQKPGQAPRLLIYSTSNLASGVPARFSGSGSGTDYTLTISSLEPEDFAVYYCQQRSSLPFTFGQGTKLEIK
Consider B5, for which, in test [3], the Kd worked out at 73.8 pM, the koff came to 0.000367 s⁻¹ and the kon was 4.98e+06 M⁻¹ s⁻¹.

B6: BGA382 (antibody, V domains shown)
VH: EVQLVQSGAEVKKPGASVKVSCKASGYTFTDYWIYWVRQAPGQGLEWMGTIDTSDHKTSYNQKFRGRVTMTRDTSTSTVYMELSSLRSEDTAVYYCARDFIITVNYPVVDYWGQGTLVTVSS
VL: QNVLTQSPATLSLSPGERATLSCSAGSSVNYLHWFQQKPGQAPRLLIYSTSNLASGVPARFSGSGSGTDYTLTISSLEPEDFAVYYCQQRSSLPFTFGQGTKLEIK
For the molecule B6, in test [3], the Kd was 51.8 pM, the koff turned out to be 0.000243 s⁻¹ and the kon came to 4.7e+06 M⁻¹ s⁻¹.

B7: BGA383 (antibody, V domains shown)
VH: EVQLVQSGAEVKKPGASVKVSCKASGYTFTDYWIYWVRQAPGQGLEWMGTIDTSDAKTSYNQKFRGRVTMTRDTSTSTVYMELSSLRSEDTAVYYCARDFIITVNYPVVDYWGQGTLVTVSS
VL: QIVLTQSPATLSLSPGERATLSCSAGSSVNYMHWFQQKPGQAPRLLIYSTSNLASGVPARFSGSGSGTDYTLTISSLEPEDFAVYYCQQRSSLPFTFGQGTKLEIK
On to B7, for which, in test [3], the Kd turned out to be 65.8 pM, the koff amounted to 0.000345 s⁻¹ and the on-rate constant (kon) amounted to 5.25e+06 M⁻¹ s⁻¹.

B8: BGA38 (antibody, V domains shown)
VH: EVQLQESGAEHVMPGASVKMSCKAAGYTFTDYWMYWVKQRPGQGLEWIGTIDTSDHKTSYNQKFRGKATLTVDESSSTAYMQLSSLTSEDSAVYYCARDFIITVNYPVVDYWGQGTSVTVSS
VL: QNVLTQSPAIMSASPGEKVTITCSAGSSVNYMHWFQQKPGTSPKLWIYSTSNLASGVPARFSGSGSGTSYSLTISRMEAEDAATYYCQQRSSLPFTFGSGTKLEIK
Regarding B8, the EC50 in test [1] came out at 222 pM. Besides, in test [2], the Kd was determined as 109 pM, the koff is 0.000157 s⁻¹ and the kon was 1.44e+06 M⁻¹ s⁻¹. For the same molecule, in test [3], the Kd came to 50.7 pM, the koff stood at 0.00021 s⁻¹ and the kon is 4.15e+06 M⁻¹ s⁻¹.

B9: BGA501 (antibody, V domains shown)
VH: QVQLVQSGAEVKKPGASVKVSCKASGYSFTGYFLNWVRQAPGQGLEWIGRISPYQGDTFYNQKFKGRVTMTTDKSTSTAYMELRSLRSDDTAVYYCGRSGSFTLFYAIDYWGQGTLVTVSS
VL: DIVMTQSPSSLAVSLGERATINCKSSQSLFHSGNQKNYLAWYQQKPGQSPKLLIYWASTRESGVPDRFSGSGSGTDFTLTISSLQAEDVAVYYCQQYYSYPITFGQGTKLEIK
Turning to B9, in test [3], the Kd came to 426 pM, the koff worked out at 0.00267 s⁻¹ and the kon worked out at 6.27e+06 M⁻¹ s⁻¹.

B10: BGA502 (antibody, V domains shown)
VH: QVQLVQSGAEVKKPGASVKVSCKASGYSFTGYFLNWVRQAPGQGLEWIGRISPYQGDTFYNQKFKGRVTMTTDKSTSTAYMELRSLRSDDTAVYYCGRSGSFTLFYALDYWGQGTLVTVSS
VL: DIVMTQSPSSLAVSLGERATINCKSSQSLFHSGNQKNYLAWYQQKPGQSPKLLIYWASTRESGVPDRFSGSGSGTDFTLTISSLQAEDVAVYYCQQYYSYPITFGQGTKLEIK
As to B10, in test [3], the equilibrium dissociation constant (Kd) amounted to 433 pM, the koff came out at 0.00266 s⁻¹ and the kon was determined as 6.16e+06 M⁻¹ s⁻¹.

B11: BGA503 (antibody, V domains shown)
VH: QVQLVQSGAEVKKPGASVKVSCKASGYSFTGYFLNWVRQAPGQGLEWIGRISPYQGDTFYNQKFKGRVTMTVDKSTSTAYMELRSLRSDDTAVYYCGRSGSFTLFYALDYWGQGTLVTVSS
VL: DIVMTQSPSSLAVSLGERATINCKSSQSLFHSGNQKNYLAWYQQKPGQSPKLLIYWASTRESGVPDRFSGSGSGTDFTLTISSLQAEDVAVYYCQQYYSYPITFGQGTKLEIK
For the molecule B11, in test [3], the Kd stood at 396 pM, the dissociation rate constant (koff) amounted to 0.00294 s⁻¹ and the kon was found to be 7.44e+06 M⁻¹ s⁻¹.

B12: BGA86 (antibody, human IgG1, V domains shown)
VH: EVQLQESGGGSVKPGGSLQLSCAASGFTFSSYGMSWIRQSPEKKLEWVAEISSGGTYTYYPDTVTGRFTISRDNAKNTLYLEMSSLRSEDTAMYYCARGDPFGYWGQGTLVTVSA
VL: DVVMTQSHKFVSTSVGGRVSITCKASQDVMTAVAWYQQKPGQSPKLLIYSTSYRFTGVPDRFTGSGSGTDFTLTINGVQAEDLAVYSCQQHYSTPRTFGGGTKLEIK
Take B12: the EC50 in test [1] was found to be 44.9 pM. For the same molecule, in test [2], the Kd stood at 674 pM, the koff was determined as 0.00133 s⁻¹ and the kon amounted to 1.97e+06 M⁻¹ s⁻¹. Besides, in test [3], the Kd was 552 pM, the koff stood at 0.0017 s⁻¹ and the kon stood at 3.08e+06 M⁻¹ s⁻¹.

As a reminder, the EC50 is the concentration giving half of the maximal effect. In general, Kd refers to the concentration at which binding is half-saturated. As a reminder, the koff is a measure of how fast the partners let go of each other. One may read the kon as a measure of how fast the partners come together.
